Source: patent publication US20240277770A1, “SYSTEMS AND METHODS TO IDENTIFY MHC-ASSOCIATED ANTIGENS FOR THERAPEUTIC INTERVENTION” (GENENTECH, INC., priority 2021, published 2024)

Biological target: recombinant conditional HLA-A*02:01 complex (human)
Assay: TR-FRET peptide exchange / HLA complex stability assay
Conditions: remark: other sources report otherwise

RZ-score: 3.9
B1: … (peptide)
peptide: HMTEVVRHC
modifications: here or on the partner: biotinylated (BirA)
